Reference: patent US20160312212A1 (ROCHE SEQUENCING SOLUTIONS, published 2016)
Where no end group is shown, it is not given here. The star is where a group is joined. Biotin = O=C1N[C@H]2[C@H](CS[C@H]2CCCCC(=O)*)N1

Biological target: Thrombin (UniProt P00734 328-622)
Assay: SPR (Biacore X100), multiple-cycle kinetics; biotinylated peptide on streptavidin chip, thrombin 0 to 50 nM as analyte
Method: Two peptides were further prepared (synthesized and purified by Peptide 2.0) with the following sequences: a) Biotin—[…] GCG (SEQ ID NO:367) and b) Biotin—[…] (SEQ ID NO:368). The binding affinities of each peptide towards thrombin were tested on a Biacore X100 system.
In brief, 50 ul of 100 ug/ml of streptavidin (in 10 mM NaAc, 0.1 mM EDTA, 1 mM NaCl, 1 mM DTT pH 4.6) was immobilized onto a sensor chip CM5 that was pre-activated with NHS/EDC at a flow rate of 5 μl/min. After ethanolamine deactivation, biotinylated peptides (10 ng/ml) were injected and captured. Following the standard protocol for multiple-cycle kinetics, a series of injections of thrombin were then performed at 0 nM, 3.125 nM, 6.25 nM, 12.5 nM, 25 nM and 50 nM. After each injection, the sensor surface was regenerated for 2 min with 10 mM Glycine-HCl, pH 1.7 (from GE). The sensogram was recorded (see FIG. 5) and kinetic constants were derived by global fitting to a 1:1 Langmuir binding model using the BIAcore X100 Evaluation Software.

B1: Biotin-GCTSVHQETKKYQSRDPGRLIFQSSYTYNYEHVDVWGCG (designed binder)
peptide: Biotin-GCTSVHQETKKYQSRDPGRLIFQSSYTYNYEHVDVWGCG
modifications: cysteine pairing not given here
notes: Synthetic peptide (Peptide 2.0), captured on a streptavidin CM5 chip; also called peptide a)
  fold change in KD against the linear peptide without cow antibody scaffold sequences (SEQ ID NO:368): > 40 fold
